One assay has as its target CD4 (mouse) (UniProt P06332).

Substance anti-CD4 mAb (clone GK1.5) (antibody) registered a depletion of T cell subset in mice in the assay with CD4 (mouse) of over 90%.
Turning to anti-CD8 mAb (clone 2.43) (antibody), the depletion of T cell subset in mice in the assay with CD8 (mouse) was over 90%.

Source of the values: US5922685.
